Paper PMC9468636, “ZAT10 plays dual roles in cadmium uptake and detoxification in Arabidopsis”

Biological target: MBP-ZAT10 (Arabidopsis thaliana, UniProt Q96289 1-227)
Experiment: EMSA; 2 ug protein in 20 uL; EMSA/gel-shift binding 5x buffer (Beyotime; composition not stated), 20 uL, 25 C, 30 min, 12% native PAGE; protein eluted in 20 mM Tris-HCl, 100 mM NaCl, 10 mM
Settings: protein: recombinant; tags: N-terminal MBP (pMAL-c4X); blunt

Chain of MBP-ZAT10 (Q96289 whole entry): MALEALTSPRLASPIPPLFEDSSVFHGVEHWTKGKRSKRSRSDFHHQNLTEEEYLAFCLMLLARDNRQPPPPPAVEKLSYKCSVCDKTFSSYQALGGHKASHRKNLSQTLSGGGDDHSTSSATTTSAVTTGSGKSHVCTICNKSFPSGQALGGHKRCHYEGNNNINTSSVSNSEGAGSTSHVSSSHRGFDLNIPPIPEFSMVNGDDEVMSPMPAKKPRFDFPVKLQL

B1: ZAT10 promoter probe (P) (dsDNA)
DNA 1: ATCGCCACCTTCACTCTTCACACTTTCCTACCACTTGTCACGCAACTT
DNA 2: AAGTTGCGTGACAAGTGGTAGGAAAGTGTGAAGAGTGAAGGTGGCGAT
binding result: binds
